# From article PMC7695167, “Targeting the Interaction between the SH3 Domain of Grb2 and Gab2” (Cells, 2020)
# “And” between values parts separate entries of the source, which are not always exact repeats. Equal entries are not always repeated.
# B1: Grb2 C-SH3, P62993 (protein)
# chain: QQPTYVQALFDFDPQEDGELGFRRGDFIHVMDNSDPNWWKGACHGQTGMFPRNYVTPVNR
# Target: Gab2 503-524 (Homo sapiens), Q9UQC2
# Sequence (Q9UQC2 503-524): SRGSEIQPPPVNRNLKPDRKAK
binder,measurement,value
B1,Kd,100 µM and 22 µM
